Experimental data: US20240189443A1, “PD-L1 AND TLR7 DOUBLE-TARGETING NANOBODY COUPLING DRUG AND USE THEREOF IN ANTI-TUMOR” (SHANGHAI INSTITUTE OF MATERIA MEDICA, CHINESE ACADEMY OF …, priority 2021, published 2024)

Biological target: T1, PD-L1 (human PD-L1 protein of the ELISA of Example 16) (human, UniProt Q9NZQ7 19-238, limits assumed)
Experiment: ELISA; affinity relative to original antibody h_Nb1 VHH (SEQ ID NO.21)

T1 sequence (Q9NZQ7 19-238 limits assumed): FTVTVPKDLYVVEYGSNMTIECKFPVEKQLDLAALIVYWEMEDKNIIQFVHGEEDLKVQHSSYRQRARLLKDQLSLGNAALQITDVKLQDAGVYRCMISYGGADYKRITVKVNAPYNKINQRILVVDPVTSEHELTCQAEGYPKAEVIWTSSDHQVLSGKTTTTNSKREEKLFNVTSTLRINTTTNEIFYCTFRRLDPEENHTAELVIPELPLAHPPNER

Row | Increased relative affinity | Binder
1 | 12.1 relative | h_Nb1_G99R (VHH, also called 103) VHH: DVQLQESGGGLVQPGGSLRLSCAASGFTFSSYAMSWVRQAPGKGLEWVSDINSGGDNTDYADSVKGRFTISRDNAKNTLYLQMNSLKPEDTAVYYCARRPKLCFSSWGQGTQVTVSS
2 | 5.13 relative | h_Nb1_A61N (VHH, also called 92) VHH: DVQLQESGGGLVQPGGSLRLSCAASGFTFSSYAMSWVRQAPGKGLEWVSDINSGGDNTDYNDSVKGRFTISRDNAKNTLYLQMNSLKPEDTAVYYCARGPKLCFSSWGQGTQVTVSS
3 | 4.9 relative | h_Nb1_D59M (VHH, also called 96) VHH: DVQLQESGGGLVQPGGSLRLSCAASGFTFSSYAMSWVRQAPGKGLEWVSDINSGGDNTMYADSVKGRFTISRDNAKNTLYLQMNSLKPEDTAVYYCARGPKLCFSSWGQGTQVTVSS
4 | 5.12 relative | h_Nb1_D59F (VHH, also called 97) VHH: DVQLQESGGGLVQPGGSLRLSCAASGFTFSSYAMSWVRQAPGKGLEWVSDINSGGDNTFYADSVKGRFTISRDNAKNTLYLQMNSLKPEDTAVYYCARGPKLCFSSWGQGTQVTVSS
5 | 4.66 relative | h_Nb1_A61Q (VHH, also called 93) VHH: DVQLQESGGGLVQPGGSLRLSCAASGFTFSSYAMSWVRQAPGKGLEWVSDINSGGDNTDYQDSVKGRFTISRDNAKNTLYLQMNSLKPEDTAVYYCARGPKLCFSSWGQGTQVTVSS
6 | 7.02 relative | h_Nb1_G99Y (VHH, also called 106) VHH: DVQLQESGGGLVQPGGSLRLSCAASGFTFSSYAMSWVRQAPGKGLEWVSDINSGGDNTDYADSVKGRFTISRDNAKNTLYLQMNSLKPEDTAVYYCARYPKLCFSSWGQGTQVTVSS
7 | 3.38 relative | h_Nb1_C103M (VHH) VHH: DVQLQESGGGLVQPGGSLRLSCAASGFTFSSYAMSWVRQAPGKGLEWVSDINSGGDNTDYADSVKGRFTISRDNAKNTLYLQMNSLKPEDTAVYYCARGPKLMFSSWGQGTQVTVSS
8 | 5.8 relative | h_Nb1_D62Y (VHH, also called 99) VHH: DVQLQESGGGLVQPGGSLRLSCAASGFTFSSYAMSWVRQAPGKGLEWVSDINSGGDNTDYAYSVKGRFTISRDNAKNTLYLQMNSLKPEDTAVYYCARGPKLCFSSWGQGTQVTVSS
9 | 3.31 relative | h_Nb1_C103K (VHH, also called 100) VHH: DVQLQESGGGLVQPGGSLRLSCAASGFTFSSYAMSWVRQAPGKGLEWVSDINSGGDNTDYADSVKGRFTISRDNAKNTLYLQMNSLKPEDTAVYYCARGPKLKFSSWGQGTQVTVSS
10 | 4.28 relative | h_Nb1_D59R (VHH, also called 95) VHH: DVQLQESGGGLVQPGGSLRLSCAASGFTFSSYAMSWVRQAPGKGLEWVSDINSGGDNTRYADSVKGRFTISRDNAKNTLYLQMNSLKPEDTAVYYCARGPKLCFSSWGQGTQVTVSS
11 | 3.83 relative | h_Nb1_C103W (VHH) VHH: DVQLQESGGGLVQPGGSLRLSCAASGFTFSSYAMSWVRQAPGKGLEWVSDINSGGDNTDYADSVKGRFTISRDNAKNTLYLQMNSLKPEDTAVYYCARGPKLWFSSWGQGTQVTVSS
12 | 6.16 relative | h_Nb1_G99Q (VHH, also called 104) VHH: DVQLQESGGGLVQPGGSLRLSCAASGFTFSSYAMSWVRQAPGKGLEWVSDINSGGDNTDYADSVKGRFTISRDNAKNTLYLQMNSLKPEDTAVYYCARQPKLCFSSWGQGTQVTVSS
13 | 11.7 relative | h_Nb1_D62W (VHH, also called 98) VHH: DVQLQESGGGLVQPGGSLRLSCAASGFTFSSYAMSWVRQAPGKGLEWVSDINSGGDNTDYAWSVKGRFTISRDNAKNTLYLQMNSLKPEDTAVYYCARGPKLCFSSWGQGTQVTVSS
14 | 6.16 relative | h_Nb1_G99W (VHH, also called 105) VHH: DVQLQESGGGLVQPGGSLRLSCAASGFTFSSYAMSWVRQAPGKGLEWVSDINSGGDNTDYADSVKGRFTISRDNAKNTLYLQMNSLKPEDTAVYYCARWPKLCFSSWGQGTQVTVSS
15 | 4.12 relative | h_Nb1_A61K (VHH, also called 94) VHH: DVQLQESGGGLVQPGGSLRLSCAASGFTFSSYAMSWVRQAPGKGLEWVSDINSGGDNTDYKDSVKGRFTISRDNAKNTLYLQMNSLKPEDTAVYYCARGPKLCFSSWGQGTQVTVSS

Biological target: T1, PD-L1 (human PD-L1 protein of the ELISA …)
Experiment: ELISA; affinity relative to original antibody h_Nb2 VHH (SEQ ID NO.25)

Row | Increased relative affinity | Binder
16 | 6.23 relative | h_Nb2_G30R (VHH, also called 107) VHH: DVQLQESGGGLVQPGGSLRLSCAASGFTFRDRWMYWLRQAPGKGLEWVSSINPAGRSTYYADSVKGRFTISRDNAKNTLYLQMNSLKSEDTAVYYCTKDPGGYQKGQGTQVTVSS
17 | 5.92 relative | h_Nb2_G101W (VHH, also called 111) VHH: DVQLQESGGGLVQPGGSLRLSCAASGFTFGDRWMYWLRQAPGKGLEWVSSINPAGRSTYYADSVKGRFTISRDNAKNTLYLQMNSLKSEDTAVYYCTKDPWGYQKGQGTQVTVSS
18 | 1.46 relative | h_Nb2_F29R (VHH, also called 113) VHH: DVQLQESGGGLVQPGGSLRLSCAASGFTRGDRWMYWLRQAPGKGLEWVSSINPAGRSTYYADSVKGRFTISRDNAKNTLYLQMNSLKSEDTAVYYCTKDPGGYQKGQGTQVTVSS
19 | 3.98 relative | h_Nb2_P100E (VHH) VHH: DVQLQESGGGLVQPGGSLRLSCAASGFTFGDRWMYWLRQAPGKGLEWVSSINPAGRSTYYADSVKGRFTISRDNAKNTLYLQMNSLKSEDTAVYYCTKDEGGYQKGQGTQVTVSS
20 | 10 relative | h_Nb2_G30W (VHH, also called 109) VHH: DVQLQESGGGLVQPGGSLRLSCAASGFTFWDRWMYWLRQAPGKGLEWVSSINPAGRSTYYADSVKGRFTISRDNAKNTLYLQMNSLKSEDTAVYYCTKDPGGYQKGQGTQVTVSS
21 | 5.11 relative | h_Nb2_G30F (VHH, also called 108) VHH: DVQLQESGGGLVQPGGSLRLSCAASGFTFFDRWMYWLRQAPGKGLEWVSSINPAGRSTYYADSVKGRFTISRDNAKNTLYLQMNSLKSEDTAVYYCTKDPGGYQKGQGTQVTVSS
22 | 3.41 relative | h_Nb2_P100Q (VHH, also called 116) VHH: DVQLQESGGGLVQPGGSLRLSCAASGFTFGDRWMYWLRQAPGKGLEWVSSINPAGRSTYYADSVKGRFTISRDNAKNTLYLQMNSLKSEDTAVYYCTKDQGGYQKGQGTQVTVSS
23 | 6.5 relative | h_Nb2_G101R (VHH, also called 110) VHH: DVQLQESGGGLVQPGGSLRLSCAASGFTFGDRWMYWLRQAPGKGLEWVSSINPAGRSTYYADSVKGRFTISRDNAKNTLYLQMNSLKSEDTAVYYCTKDPRGYQKGQGTQVTVSS
24 | 1.44 relative | h_Nb2_F29W (VHH, also called 114) VHH: DVQLQESGGGLVQPGGSLRLSCAASGFTWGDRWMYWLRQAPGKGLEWVSSINPAGRSTYYADSVKGRFTISRDNAKNTLYLQMNSLKSEDTAVYYCTKDPGGYQKGQGTQVTVSS
